We go through 37 molecules from patent US20220098240A1 (FUJIFILM, published 2022).

Assay [1] has as its target T1, human integrin αvβ5 (human, UniProt P06756 31-992; P18084 24-719).
T1 construct: soluble analyte in SPR at 30, 100, 300 and 1,000 nM in HEPES buffer with 5 mM magnesium chloride; heterodimer of an alpha and a beta chain
Description: SPR, Biacore 3000, peptide immobilised on CM5 chip, integrin 30-1000 nM flowed; grade A = dissociation constant 50 nM or less. How it is done:
(§1) However, only for the cyclic peptide 22, in which the number of lysine residues having an amino group as the immobilizing functional group was 1, the sample solution to be supplied to the sensor chip was set to 5,000 μL instead of 300 μL. Similarly, 70 μL of the mixed aqueous solution of 0.2 M EDC and 0.04 M NHS was added to another flow channel of the same sensor chip without immobilizing the sample, and then blocking treatment and washing treatment were carried out. Hereinafter, the obtained immobilization-treated sensor chip is referred to as an “immobilization-treated sensor chip A”.
(§2) After adding human integrin αvβ5 for 10 minutes at 25° C., which was diluted to 30 nM using a HEPES buffer solution to which magnesium chloride was added to 5 mM, in each flow channel of the immobilization-treated sensor chip A prepared in (1) above, the same HEPES buffer solution (containing 5 mM magnesium chloride) was allowed to flow as a running buffer for 30 minutes, and measurement was carried out with Biacore 3000.
(§3) Then, a regeneration treatment of removing human integrin αvβ5 was carried out by allowing a 0.5 M EDTA aqueous solution to flow through each flow channel for 10 minutes. Further, the above-described measurement process consisting of adding integrin for 10 minutes, allowing a running buffer to flow for 30 minutes, carrying out measurement with Biacore 3000, and carrying out regeneration treatment with 0.5 M EDTA aqueous solution was carried out in the same manner for 100 nM human integrin αvβ5, 300 nM human integrin αvβ5, and 1,000 nM human integrin αvβ5. Dissociation constant between the cyclic peptide and human integrin αvβ5 was calculated from the difference between the value measured by Biacore 3000 in the flow channel immobilized with the cyclic peptide and the value measured by Biacore 3000 in the flow channel unimmobilized with the cyclic peptide, in a case where each concentration of human integrin αvβ5 was allowed to flow, and the integrin binding property was evaluated according to the following evaluation standards. It is preferable that the evaluation result satisfies the evaluation standard A, B, or C.
Background: In SPR one partner is held on a chip, and binding of the other changes the refractive index at the surface.

The target of assay [2] is T1, human integrin αvβ5. Description: SPR, Biacore 3000, peptide immobilised on CM5 chip, integrin 30-1000 nM flowed; grade B = dissociation constant more than 50 nM and 100 nM or less. How it is done: as §1, §2, §3

Bridge positions count the residues as written; N and C are the ends. Square brackets hold non-standard residues; d marks the D form. Ends that are not written are not given here. COCH2 = acetyl group that carries the bridge; Pen = CC(C)(S)[C@H](N)C(=O)O; hCys = N[C@@H](CCS)C(=O)O; Orn = NCCC[C@H](N)C(=O)O; Dab = NCC[C@H](N)C(=O)O; Dap = NC[C@H](N)C(=O)O Where only a bound is given, the exact number is not on record here.

T1 sequence (P06756 31-992, chain 1 of 2): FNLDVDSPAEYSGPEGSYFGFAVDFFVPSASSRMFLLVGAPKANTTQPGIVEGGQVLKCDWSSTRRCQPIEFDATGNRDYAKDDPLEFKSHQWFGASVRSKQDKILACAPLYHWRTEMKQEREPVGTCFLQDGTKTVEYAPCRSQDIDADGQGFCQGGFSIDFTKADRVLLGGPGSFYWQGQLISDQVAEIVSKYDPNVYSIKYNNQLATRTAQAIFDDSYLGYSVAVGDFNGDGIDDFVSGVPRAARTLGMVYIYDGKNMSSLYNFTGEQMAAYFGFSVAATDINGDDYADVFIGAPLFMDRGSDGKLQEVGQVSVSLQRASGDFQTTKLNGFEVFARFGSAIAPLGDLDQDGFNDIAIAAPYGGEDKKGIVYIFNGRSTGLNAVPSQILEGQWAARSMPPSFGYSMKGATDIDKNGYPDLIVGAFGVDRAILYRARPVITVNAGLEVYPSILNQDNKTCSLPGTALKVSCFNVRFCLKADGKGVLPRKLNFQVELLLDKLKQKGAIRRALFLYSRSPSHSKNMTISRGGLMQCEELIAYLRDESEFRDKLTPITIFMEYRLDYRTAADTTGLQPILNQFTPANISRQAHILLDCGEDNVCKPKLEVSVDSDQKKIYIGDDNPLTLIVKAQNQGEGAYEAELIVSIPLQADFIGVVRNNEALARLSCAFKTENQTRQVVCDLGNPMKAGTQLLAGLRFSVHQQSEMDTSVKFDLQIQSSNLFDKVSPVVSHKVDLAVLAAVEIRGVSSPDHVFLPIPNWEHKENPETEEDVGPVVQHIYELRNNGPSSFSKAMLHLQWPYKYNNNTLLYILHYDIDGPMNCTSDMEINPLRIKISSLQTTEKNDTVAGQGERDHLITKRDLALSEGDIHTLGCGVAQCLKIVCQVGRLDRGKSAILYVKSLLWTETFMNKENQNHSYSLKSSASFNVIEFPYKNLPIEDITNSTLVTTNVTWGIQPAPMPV
T1 sequence (P18084 24-719, chain 2 of 2): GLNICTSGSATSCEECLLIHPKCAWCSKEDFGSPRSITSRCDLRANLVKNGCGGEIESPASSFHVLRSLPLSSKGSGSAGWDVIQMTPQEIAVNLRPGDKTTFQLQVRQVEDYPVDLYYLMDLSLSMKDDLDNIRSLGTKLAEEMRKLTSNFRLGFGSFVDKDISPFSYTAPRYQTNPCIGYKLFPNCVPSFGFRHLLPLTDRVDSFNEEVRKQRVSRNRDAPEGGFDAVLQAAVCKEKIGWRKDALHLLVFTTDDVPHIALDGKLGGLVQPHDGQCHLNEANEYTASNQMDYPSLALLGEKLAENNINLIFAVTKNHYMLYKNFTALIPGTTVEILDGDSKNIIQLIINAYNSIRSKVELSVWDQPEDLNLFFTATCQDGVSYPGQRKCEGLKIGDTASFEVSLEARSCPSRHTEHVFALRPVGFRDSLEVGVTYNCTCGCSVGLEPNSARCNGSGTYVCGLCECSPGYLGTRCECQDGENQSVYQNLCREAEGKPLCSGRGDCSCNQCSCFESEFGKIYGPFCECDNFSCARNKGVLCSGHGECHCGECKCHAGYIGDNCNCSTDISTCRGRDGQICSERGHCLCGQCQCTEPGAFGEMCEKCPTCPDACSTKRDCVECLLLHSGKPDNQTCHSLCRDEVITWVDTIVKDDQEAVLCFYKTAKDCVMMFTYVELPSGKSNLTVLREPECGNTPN

{CH2CO}-D[hCys]RGDK(COCH2)F[hCys]AKKK (thioether 2-6, N-8) [Cyclic peptide 45]: the dissociation constant with human integrin αvβ5 [1] was below 50 nM.

Consider {CH2CO}-D[hCys]RGD[Orn](COCH2)F[hCys]KKK (thioether 2-6, N-8) [Cyclic peptide 42], for which, in the assay with human integrin αvβ5 [1], the dissociation constant was below 50 nM.

For {CH2CO}-T[hCys]RGDK(COCH2)F[hCys]KKK (thioether 2-6, N-8) [Cyclic peptide 27], the dissociation constant with human integrin αvβ5 [1] is below 50 nM.

On to {CH2CO}-E[hCys]RGDK(COCH2)F[hCys]KKK (thioether 2-6, N-8) [Cyclic peptide 30], for which, in the assay with human integrin αvβ5 [1], the dissociation constant was below 50 nM.

On to {CH2CO}-V[hCys]RGDK(COCH2)F[hCys]KKK (thioether 2-6, N-8) [Cyclic peptide 28], for which, in the assay with human integrin αvβ5 [1], the dissociation constant is below 50 nM.

Turning to A[hCys][hCys]RGDK(COCH2)FK(COCH2)KKK (thioether 2-9, 3-7) [Cyclic peptide 36], the dissociation constant with human integrin αvβ5 [2] is 50 to 100 nM.

In turn, {CH2CO}-I[hCys]RGDK(COCH2)F[hCys]AKKK (thioether 2-6, N-8) [Cyclic peptide 35] had a dissociation constant in the assay with human integrin αvβ5 [1] below 50 nM.

B1: Cyclic peptide 26 (peptide)
peptide: XXRGDXFXKKK
modifications: not fully specified; thioether: L1 alpha-NH2 through acetyl to Hcy8; thioether: Hcy2 to K(acetyl)6
For B1, the dissociation constant with human integrin αvβ5 [1] is below 50 nM.

Take {CH2CO}-D[Orn]RGD[hCys]F[hCys]KKK (thioether N-8; bridge 2-6; not fully specified (residue 2, bridges)) [Cyclic peptide 39]: the dissociation constant in the assay with human integrin αvβ5 [1] is below 50 nM.

Molecule {CH2CO}-I[Orn](COCH2)RGD[hCys]F[Pen]KKK (thioether 2-6, N-8) [Cyclic peptide 23] displayed a dissociation constant (KD) in the assay with human integrin αvβ5 [1] below 50 nM.

In turn, {CH2CO}-V[Orn](COCH2)RGD[hCys]F[hCys]KKK (thioether 2-6, N-8) [Cyclic peptide 38] returned a dissociation constant in the assay with human integrin αvβ5 [1] below 50 nM.

B2: Cyclic peptide 24 (peptide)
peptide: {CH2CO}-E[Orn]RGD[hCys]F[Pen]KKK
modifications: thioether N-8; bridge 2-6; not fully specified (residue 2, bridges); printed as E RGD- -F-(Pen)-KKK
Consider B2, for which, in the assay with human integrin αvβ5 [1], the dissociation constant (KD) was below 50 nM.

In the assay with human integrin αvβ5 [2], {CH2CO}-I[Dap](COCH2)RGD[hCys]F[hCys]KKK (thioether 2-6, N-8) [Cyclic peptide 1] came in with a dissociation constant (KD) of 50 to 100 nM.

B3: Cyclic peptide 12 (peptide)
peptide: XCRGDXFCKKK
modifications: not fully specified; thioether: I1 alpha-NH2 through acetyl to C8; thioether: C2 to K(acetyl)6
notes: bicyclic; all residues L; immobilised on CM5 chip through amino groups
In the case of B3, the “dissociation constant (KD)” value with human integrin αvβ5 [1] was at most 50 nM.

Take {CH2CO}-I[hCys]RGDK(COCH2)P[hCys]KKK (thioether 2-6, N-8) [Cyclic peptide 31]: the dissociation constant with human integrin αvβ5 [2] lay in the range of 50 to 100 nM.

In the assay with human integrin αvβ5 [1], {CH2CO}-I[hCys]RGDK(COCH2)F[hCys]KKK (thioether 2-6, N-8) [Cyclic peptide 11] displayed a dissociation constant (KD) below 50 nM.

As to {CH2CO}-E[hCys]RGD[Orn](COCH2)F[hCys]AKKK (thioether 2-6, N-8) [Cyclic peptide 47], the dissociation constant with human integrin αvβ5 [1] is below 50 nM.

As to {CH2CO}-D[hCys]RGDK(COCH2)F[hCys]KKK (thioether 2-6, N-8) [Cyclic peptide 29], the dissociation constant in the assay with human integrin αvβ5 [1] was below 50 nM.

In the assay with human integrin αvβ5 [1], {CH2CO}-I[hCys]RGDK(COCH2)F[hCys]K (thioether 2-6, N-8) [Cyclic peptide 22] gave a dissociation constant (KD) below 50 nM.

On to KKK[hCys][hCys]RGDK(COCH2)FK(COCH2)A (thioether 4-11, 5-9) [Cyclic peptide 37], for which the dissociation constant with human integrin αvβ5 [2] lay in the range of 50 to 100 nM.

B4: Cyclic peptide 15 (peptide)
peptide: {CH2CO}-I[Orn](COCH2)RGD[hCys]FCKKK
modifications: thioether 2-6 via Ac; thioether N-8; not fully specified
notes: as for B3
Consider B4, for which the “dissociation constant (KD)” value in the assay with human integrin αvβ5 [1] is at most 50 nM.

B5: Cyclic peptide 21 (peptide)
peptide: K[Dap]RGD[hCys]F[hCys]KKK
modifications: bridge N-8, 2-6; not fully specified (N-terminus, bridges); printed as K RGD- -F-(Hcy)-KKK
In the assay with human integrin αvβ5 [2], B5 returned a dissociation constant (KD) of 50 to 100 nM.

B6: Cyclic peptide 48 (peptide)
peptide: {CH2CO}-KCRGDCFCKKK
modifications: disulfide 2-6; thioether N-8
notes: bicyclic comparative peptide; all residues L; immobilised on CM5 chip through amino groups
B6: the dissociation constant with human integrin αvβ5 [1] is at most 50 nM.

In the assay with human integrin αvβ5 [2], {CH2CO}-I[hCys]RGDK(COCH2)Y[hCys]KKK (thioether 2-6, N-8) [Cyclic peptide 32] registered a dissociation constant of 50 to 100 nM.

For the molecule {CH2CO}-E[hCys]RGD[Orn](COCH2)F[hCys]KKK (thioether 2-6, N-8) [Cyclic peptide 43], the dissociation constant in the assay with human integrin αvβ5 [1] was below 50 nM.

In the assay with human integrin αvβ5 [2], {CH2CO}-I[hCys]RGDK(COCH2)FA[hCys]KKK (thioether 2-6, N-9) [Cyclic peptide 34] came in with a dissociation constant of 50 to 100 nM.

B7: Cyclic peptide 20 (peptide)
peptide: {CH2CO}-ICRGD[Dab](COCH2)F[hCys]KKK
modifications: thioether 2-6 via Ac; thioether N-8; not fully specified
notes: as for B3
As to B7, in the assay with human integrin αvβ5 [1], the “dissociation constant (KD)” value is at most 50 nM.

In the assay with human integrin αvβ5 [1], {CH2CO}-I[Orn](COCH2)RGD[hCys]F[hCys]KKK (thioether 2-6, N-8) [Cyclic peptide 3] came in with a dissociation constant (KD) below 50 nM.

B8: Cyclic peptide 49 (peptide)
peptide: ACDCRGDCFCGKKK
modifications: disulfide 2-10, 4-8
notes: as for B6
In the assay with human integrin αvβ5 [1], B8 showed a dissociation constant of at most 50 nM.

B9: Cyclic peptide 8 (peptide)
peptide: {CH2CO}-ICRGD[Dab](COCH2)FCKKK
modifications: thioether 2-6 via Ac; thioether N-8
notes: as for B3
With B9, the “dissociation constant (KD)” value with human integrin αvβ5 [1] was at most 50 nM.

Turning to {CH2CO}-E[hCys]RGDK(COCH2)F[hCys]AKKK (thioether 2-6, N-8) [Cyclic peptide 46], the dissociation constant with human integrin αvβ5 [1] is below 50 nM.

With {CH2CO}-E[Orn](COCH2)RGD[hCys]F[hCys]KKK (thioether 2-6, N-8) [Cyclic peptide 40], the dissociation constant in the assay with human integrin αvβ5 [1] was below 50 nM.

B10: Cyclic peptide 17 (peptide)
peptide: {CH2CO}-I[hCys]RGDK(COCH2)FCKKK
modifications: thioether 2-6 via Ac; thioether N-8; not fully specified
notes: as for B3
As for B10, in the assay with human integrin αvβ5 [1], the “dissociation constant (KD)” value was at most 50 nM.

B11: Cyclic peptide 18 (peptide)
peptide: {CH2CO}-ICRGDK(COCH2)F[hCys]KKK
modifications: thioether 2-6 via Ac; thioether N-8; not fully specified
notes: as for B3
Turning to B11, the “dissociation constant (KD)” value in the assay with human integrin αvβ5 [1] is at most 50 nM.

B12: Cyclic peptide 14 (peptide)
peptide: {CH2CO}-I[Dap](COCH2)RGDCF[hCys]KKK
modifications: thioether 2-6 via Ac; thioether N-8; not fully specified
notes: as for B3
Regarding B12, in the assay with human integrin αvβ5 [1], the “dissociation constant (KD)” value is at most 50 nM.

{CH2CO}-V[hCys]RGDK(COCH2)F[hCys]AKKK (thioether 2-6, N-8) [Cyclic peptide 44] showed a dissociation constant in the assay with human integrin αvβ5 [1] below 50 nM.

As for {CH2CO}-Y[hCys]RGDK(COCH2)F[hCys]KKK (thioether 2-6, N-8) [Cyclic peptide 25], in the assay with human integrin αvβ5 [1], the dissociation constant was below 50 nM.
